Test results taken from patent US20110044994A1.

What was measured:
Assay in all cases: cell-based or functional assay
[1] = target: 92RW020 pseudovirus Env (HIV-1)
[2] = target: JR-CSF pseudovirus (HIV-1 Env on the virions) (HIV-1) (UniProt P20871)
[3] = target: ADA pseudovirus Env (HIV-1)
[4] = target: JR-CSF (Y318A) pseudovirus Env (HIV-1) (UniProt P20871)
[5] = target: JR-FL (E168K) pseudovirus Env (HIV-1)
[6] = target: JR-CSF (I309A) pseudovirus Env (HIV-1) (UniProt P20871)

B1: 1503_H05 (PG16) (antibody, V domains shown)
VH: QEKLVESGGGVVQPGGSLRLSCLASGFTFHKYGMHWVRQAPGKGLEWVALISDDGMRKYHSDSMWGRVTISRDNSKNTLYLQFSSLKVEDTAMFFCAREAGGPIWHDDVKYYDFNDGYYNYHYMDVWGKGTIVTVSS
VL: QSALTQPASVSGSPGQTITISCNGTRSDVGGFDSVSWYQQSPGKAPKVMVFDVSHRPSGISNRFSGSKSGNTASLTISGLHIEDEGDYFCSSLTDRSHRIFGGGTKVTVLG
[1]
  IC50 (ug/ml), pseudovirus neutralization, TZM-bl assay: 0.02 µg/mL
[2]
  IC50 (ug/ml), pseudovirus neutralization, TZM-bl assay: 0.001 µg/mL
[3]
  IC50 (ug/ml), pseudovirus neutralization, TZM-bl assay: 0.003 µg/mL
[4]
  IC50 (ug/ml), pseudovirus neutralization, TZM-bl assay: > 1 µg/mL
[5]
  IC50 (ug/ml), pseudovirus neutralization, TZM-bl assay: 0.002 µg/mL
[6]
  IC50 (ug/ml), pseudovirus neutralization, TZM-bl assay: > 1 µg/mL

B2: 1456_A12 (PG16) (antibody, V domains shown)
VH: HEQLVEAGGGVVQPGGSLRLSCLASGFTFHKYGMHWVRQAPGKGLEWVALISDDGMRKYHSDSMWGRVTISRDNSKNTLYLQFSSLRVEDTAMFFCAREAGGPIWHDDVKYYDFNDGYYNYHYMDVWGKGTKVTVSS
VL: QSALTQPASVSGSPGQTITISCNGTSRDVGGFDSVSWYQQSPGKAPKVMVFDVSHRPSGMSNRFSGSKSGNTASLTISGLHIEDEGDYFCSSLTDRSHRIFGGGTKLTVLG
[1]
  IC50 (ug/ml), pseudovirus neutralization, TZM-bl assay: 0.05 µg/mL
[2]
  IC50 (ug/ml), pseudovirus neutralization, TZM-bl assay: 0.001 µg/mL
[3]
  IC50 (ug/ml), pseudovirus neutralization, TZM-bl assay: 0.005 µg/mL
[4]
  IC50 (ug/ml), pseudovirus neutralization, TZM-bl assay: > 1 µg/mL
[5]
  IC50 (ug/ml), pseudovirus neutralization, TZM-bl assay: 0.003 µg/mL
[6]
  IC50 (ug/ml), pseudovirus neutralization, TZM-bl assay: > 1 µg/mL

B3: 1469_M23 (PG16) (antibody, V domains shown)
VH: QEKLVESGGGVVQPGGSLRLSCLASGFTFHKYGMHWVRQAPGKGLEWVALISDDGMRKYHSDSMWGRVTISRDNSKNTLYLQFSSLKVEDTAMFFCAREAGGPIWHDDVKYYDFNDGYYNYHYMDVWGKGTTVTVSS
VL: QSALTQPASVSGSPGQTITISCNGTRSDVGGFDSVSWYQQSPGRAPKVMVFDVSHRPSGISNRFSGSKSGNTASLTISGLHIEDEGDYFCSSLTDRSHRIFGGGTKLTVLG
[1]
  IC50 (ug/ml), pseudovirus neutralization, TZM-bl assay: 0.05 µg/mL
[2]
  IC50 (ug/ml), pseudovirus neutralization, TZM-bl assay: 0.002 µg/mL
[3]
  IC50 (ug/ml), pseudovirus neutralization, TZM-bl assay: 0.005 µg/mL
[4]
  IC50 (ug/ml), pseudovirus neutralization, TZM-bl assay: > 1 µg/mL
[5]
  IC50 (ug/ml), pseudovirus neutralization, TZM-bl assay: 0.005 µg/mL
[6]
  IC50 (ug/ml), pseudovirus neutralization, TZM-bl assay: > 1 µg/mL

B4: 1489_I13 (PG16) (antibody, V domains shown)
VH: QEQLLESGGGVVQPGGSLRLSCLASGFTFHKYGMHWVRQAPGKGLEWVALISDDGMRKYHSNSMWGRVTISRDNSKNTLYLQFSSLKVEDTAMFFCAREAGGPIWHDDVKYYDFNDGYYNYHYMDVWGKGTTVTVSS
VL: QSALTQPASVSGSPGQTITISCNGTSSDVGGFDSVSWYQQSPGKAPKVMVFDVSHRPSGISNRFSGSKSGNTASLTISGLHIEDEGDYFCSSLTDRSHRIFGGGTKVTVLG
[1]
  IC50 (ug/ml), pseudovirus neutralization, TZM-bl assay: 0.03 µg/mL
[2]
  IC50 (ug/ml), pseudovirus neutralization, TZM-bl assay: 0.002 µg/mL
[3]
  IC50 (ug/ml), pseudovirus neutralization, TZM-bl assay: 0.008 µg/mL
[4]
  IC50 (ug/ml), pseudovirus neutralization, TZM-bl assay: > 1 µg/mL
[5]
  IC50 (ug/ml), pseudovirus neutralization, TZM-bl assay: 0.005 µg/mL
[6]
  IC50 (ug/ml), pseudovirus neutralization, TZM-bl assay: > 1 µg/mL
